Measured values taken from US20200223889A1 (Novo Nordisk, published 2020).
Positions of bridges follow the written chain, without caps; N, C: chain ends. Non-standard residues stand in square brackets, D forms with d. Hyp = O=C(O)[C@@H]1C[C@@H](O)CN1; Pen = CC(C)(S)[C@H](N)C(=O)O; Orn = NCCC[C@H](N)C(=O)O; Thz = O=C(O)[C@@H]1CSCN1; Dab = NCC[C@H](N)C(=O)O; Aib = CC(C)(N)C(=O)O

B1: Chem. 121 (peptide)
peptide: cyclo(CPH[dF]HWCAH[dK][dK]R)
modifications: disulfide 1-7
SMILES: C[C@@H]1NC(=O)[C@@H]2CSSC[C@H](NC(=O)[C@H](CCCNC(=N)N)NC(=O)[C@@H](CCCCN)NC(=O)[C@@H](CCCCN)NC(=O)[C@H](Cc3c[nH]cn3)NC1=O)C(=O)N1CCC[C@H]1C(=O)N[C@@H](Cc1c[nH]cn1)C(=O)N[C@H](Cc1ccccc1)C(=O)N[C@@H](Cc1c[nH]cn1)C(=O)N[C@@H](Cc1c[nH]c3ccccc13)C(=O)N2
B2: Chem. 119 (peptide)
peptide: cyclo(C[Thz]H[dF]HWCA[Orn]E[Orn]R)
modifications: disulfide 1-7
SMILES: C[C@@H]1NC(=O)[C@@H]2CSSC[C@H](NC(=O)[C@H](CCCNC(=N)N)NC(=O)[C@H](CCCN)NC(=O)[C@H](CCC(=O)O)NC(=O)[C@H](CCCN)NC1=O)C(=O)N1CSC[C@H]1C(=O)N[C@@H](Cc1c[nH]cn1)C(=O)N[C@H](Cc1ccccc1)C(=O)N[C@@H](Cc1c[nH]cn1)C(=O)N[C@@H](Cc1c[nH]c3ccccc13)C(=O)N2
B3: Chem. 113 (peptide)
peptide: cyclo(C[Thz]H[dF]HWCARERR)
modifications: disulfide 1-7
SMILES: C[C@@H]1NC(=O)[C@@H]2CSSC[C@H](NC(=O)[C@H](CCCNC(=N)N)NC(=O)[C@H](CCCNC(=N)N)NC(=O)[C@H](CCC(=O)O)NC(=O)[C@H](CCCNC(=N)N)NC1=O)C(=O)N1CSC[C@H]1C(=O)N[C@@H](Cc1c[nH]cn1)C(=O)N[C@H](Cc1ccccc1)C(=O)N[C@@H](Cc1c[nH]cn1)C(=O)N[C@@H](Cc1c[nH]c3ccccc13)C(=O)N2
B4: Chem. 115 (peptide)
peptide: cyclo(C[Thz]H[dF]HWCK[Orn]AAW)
modifications: disulfide 1-7
SMILES: C[C@@H]1NC(=O)[C@H](C)NC(=O)[C@H](CCCN)NC(=O)[C@H](CCCCN)NC(=O)[C@@H]2CSSC[C@H](NC(=O)[C@H](Cc3c[nH]c4ccccc34)NC1=O)C(=O)N1CSC[C@H]1C(=O)N[C@@H](Cc1c[nH]cn1)C(=O)N[C@H](Cc1ccccc1)C(=O)N[C@@H](Cc1c[nH]cn1)C(=O)N[C@@H](Cc1c[nH]c3ccccc13)C(=O)N2
B5: Chem. 117 (peptide)
peptide: cyclo(C[Thz]H[dF]HW[Pen]KKAAW)
modifications: disulfide 1-7
SMILES: C[C@@H]1NC(=O)[C@H](C)NC(=O)[C@H](CCCCN)NC(=O)[C@H](CCCCN)NC(=O)[C@H]2NC(=O)[C@H](Cc3c[nH]c4ccccc34)NC(=O)[C@H](Cc3c[nH]cn3)NC(=O)[C@@H](Cc3ccccc3)NC(=O)[C@H](Cc3c[nH]cn3)NC(=O)[C@@H]3CSCN3C(=O)[C@H](CSSC2(C)C)NC(=O)[C@H](Cc2c[nH]c3ccccc23)NC1=O
B6: Chem. 118 (peptide)
peptide: cyclo(C[Thz]H[dF]HWCKR)
modifications: disulfide 1-7
SMILES: N=C(N)NCCC[C@@H]1NC(=O)[C@H](CCCCN)NC(=O)[C@@H]2CSSC[C@H](NC1=O)C(=O)N1CSC[C@H]1C(=O)N[C@@H](Cc1c[nH]cn1)C(=O)N[C@H](Cc1ccccc1)C(=O)N[C@@H](Cc1c[nH]cn1)C(=O)N[C@@H](Cc1c[nH]c3ccccc13)C(=O)N2
B7: Chem. 120 (peptide)
peptide: cyclo(C[Thz]H[dF]HWCAHE[Orn]R)
modifications: disulfide 1-7
SMILES: C[C@@H]1NC(=O)[C@@H]2CSSC[C@H](NC(=O)[C@H](CCCNC(=N)N)NC(=O)[C@H](CCCN)NC(=O)[C@H](CCC(=O)O)NC(=O)[C@H](Cc3c[nH]cn3)NC1=O)C(=O)N1CSC[C@H]1C(=O)N[C@@H](Cc1c[nH]cn1)C(=O)N[C@H](Cc1ccccc1)C(=O)N[C@@H](Cc1c[nH]cn1)C(=O)N[C@@H](Cc1c[nH]c3ccccc13)C(=O)N2
B8: Chem. 116 (peptide)
peptide: cyclo(C[Thz]H[dF]HWC[Orn][Orn]AAW)
modifications: disulfide 1-7
SMILES: C[C@@H]1NC(=O)[C@H](C)NC(=O)[C@H](CCCN)NC(=O)[C@H](CCCN)NC(=O)[C@@H]2CSSC[C@H](NC(=O)[C@H](Cc3c[nH]c4ccccc34)NC1=O)C(=O)N1CSC[C@H]1C(=O)N[C@@H](Cc1c[nH]cn1)C(=O)N[C@H](Cc1ccccc1)C(=O)N[C@@H](Cc1c[nH]cn1)C(=O)N[C@@H](Cc1c[nH]c3ccccc13)C(=O)N2
B9: Chem. 114 (peptide)
peptide: cyclo(C[Thz]H[dF]HWCKA[dK]AW)
modifications: disulfide 1-7
SMILES: C[C@@H]1NC(=O)[C@H](CCCCN)NC(=O)[C@@H]2CSSC[C@H](NC(=O)[C@H](Cc3c[nH]c4ccccc34)NC(=O)[C@H](C)NC(=O)[C@@H](CCCCN)NC1=O)C(=O)N1CSC[C@H]1C(=O)N[C@@H](Cc1c[nH]cn1)C(=O)N[C@H](Cc1ccccc1)C(=O)N[C@@H](Cc1c[nH]cn1)C(=O)N[C@@H](Cc1c[nH]c3ccccc13)C(=O)N2
B10: Chem. 43 (peptide)
peptide: CXHFXWCXHFXW
modifications: Aib 2, 8; D-Phe 4, 10; AGP 5, 11; disulphide Cys1-Cys7; head-to-tail amide Cys1-Trp12
B11: Chem. 38 (peptide)
peptide: cyclo(C[Aib][Hyp][dF]RWC[Aib][Hyp][dF]RW)
modifications: disulfide 1-7
SMILES: CC1(C)NC(=O)[C@@H]2CSSC[C@H](NC(=O)[C@H](Cc3c[nH]c4ccccc34)NC(=O)[C@H](CCCNC(=N)N)NC(=O)[C@@H](Cc3ccccc3)NC(=O)[C@@H]3C[C@@H](O)CN3C1=O)C(=O)NC(C)(C)C(=O)N1C[C@H](O)C[C@H]1C(=O)N[C@H](Cc1ccccc1)C(=O)N[C@@H](CCCNC(=N)N)C(=O)N[C@@H](Cc1c[nH]c3ccccc13)C(=O)N2
B12: Chem. 46 (peptide)
peptide: cyclo(C[Aib]H[dF][Dab]WC[Aib]H[dF][Dab]W)
modifications: disulfide 1-7
SMILES: CC1(C)NC(=O)[C@@H]2CSSC[C@H](NC(=O)[C@H](Cc3c[nH]c4ccccc34)NC(=O)[C@H](CCN)NC(=O)[C@@H](Cc3ccccc3)NC(=O)[C@H](Cc3c[nH]cn3)NC1=O)C(=O)NC(C)(C)C(=O)N[C@@H](Cc1c[nH]cn1)C(=O)N[C@H](Cc1ccccc1)C(=O)N[C@@H](CCN)C(=O)N[C@@H](Cc1c[nH]c3ccccc13)C(=O)N2
B13: Chem. 21 (peptide)
peptide: CAHFXWCAHFXW
modifications: D-Phe 4, 10; Arg(NO2) 5, 11; disulphide Cys1-Cys7; head-to-tail amide Cys1-Trp12
B14: Chem. 34 (peptide)
peptide: cyclo(C[dV]H[dF]RWC[dV]H[dF]RW)
modifications: disulfide 1-7
SMILES: CC(C)[C@H]1NC(=O)[C@@H]2CSSC[C@H](NC(=O)[C@H](Cc3c[nH]c4ccccc34)NC(=O)[C@H](CCCNC(=N)N)NC(=O)[C@@H](Cc3ccccc3)NC(=O)[C@H](Cc3c[nH]cn3)NC1=O)C(=O)N[C@H](C(C)C)C(=O)N[C@@H](Cc1c[nH]cn1)C(=O)N[C@H](Cc1ccccc1)C(=O)N[C@@H](CCCNC(=N)N)C(=O)N[C@@H](Cc1c[nH]c3ccccc13)C(=O)N2
B15: Chem. 33 (peptide)
peptide: cyclo(C[dP]H[dF]RWC[dP]H[dF]RW)
modifications: disulfide 1-7
SMILES: N=C(N)NCCC[C@@H]1NC(=O)[C@@H](Cc2ccccc2)NC(=O)[C@H](Cc2c[nH]cn2)NC(=O)[C@H]2CCCN2C(=O)[C@@H]2CSSC[C@H](NC(=O)[C@H](Cc3c[nH]c4ccccc34)NC1=O)C(=O)N1CCC[C@@H]1C(=O)N[C@@H](Cc1c[nH]cn1)C(=O)N[C@H](Cc1ccccc1)C(=O)N[C@@H](CCCNC(=N)N)C(=O)N[C@@H](Cc1c[nH]c3ccccc13)C(=O)N2
B16: Chem. 86 (peptide)
peptide: cyclo(C[dK]H[dF]HWC[dK]H[dF]HW)
modifications: disulfide 1-7
SMILES: NCCCC[C@H]1NC(=O)[C@@H]2CSSC[C@H](NC(=O)[C@H](Cc3c[nH]c4ccccc34)NC(=O)[C@H](Cc3c[nH]cn3)NC(=O)[C@@H](Cc3ccccc3)NC(=O)[C@H](Cc3c[nH]cn3)NC1=O)C(=O)N[C@H](CCCCN)C(=O)N[C@@H](Cc1c[nH]cn1)C(=O)N[C@H](Cc1ccccc1)C(=O)N[C@@H](Cc1c[nH]cn1)C(=O)N[C@@H](Cc1c[nH]c3ccccc13)C(=O)N2
B17: Chem. 41 (peptide)
peptide: CXHFXWCXHFXW
modifications: Aib 2, 8; D-Phe 4, 10; Cit 5, 11; disulphide Cys1-Cys7; head-to-tail amide Cys1-Trp12
B18: Chem. 6 (peptide)
peptide: cyclo(CH[dF]RW[dA]CH[dF]RW[dA])
modifications: disulfide 1-7
SMILES: C[C@H]1NC(=O)[C@H](Cc2c[nH]c3ccccc23)NC(=O)[C@H](CCCNC(=N)N)NC(=O)[C@@H](Cc2ccccc2)NC(=O)[C@H](Cc2c[nH]cn2)NC(=O)[C@@H]2CSSC[C@H](NC1=O)C(=O)N[C@@H](Cc1c[nH]cn1)C(=O)N[C@H](Cc1ccccc1)C(=O)N[C@@H](CCCNC(=N)N)C(=O)N[C@@H](Cc1c[nH]c3ccccc13)C(=O)N[C@H](C)C(=O)N2

Biological target: human melanocortin 4 receptor (human, UniProt P32245 1-332)
Sequence (P32245 whole entry): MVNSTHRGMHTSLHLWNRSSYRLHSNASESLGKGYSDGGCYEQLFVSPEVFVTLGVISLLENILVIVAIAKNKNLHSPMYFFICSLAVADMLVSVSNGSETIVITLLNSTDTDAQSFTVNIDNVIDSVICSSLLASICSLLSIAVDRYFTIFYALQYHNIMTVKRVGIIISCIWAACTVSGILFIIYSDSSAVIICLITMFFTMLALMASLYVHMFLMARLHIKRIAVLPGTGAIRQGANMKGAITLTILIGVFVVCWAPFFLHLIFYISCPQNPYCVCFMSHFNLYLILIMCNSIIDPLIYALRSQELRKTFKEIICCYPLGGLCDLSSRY
Assay: cell-based or functional assay

First: B1
Second: B2
The “MC4R cAMP EC50” value of the first is 4-fold higher: 0.24 nM for the first, 0.06 nM for the second.

Going from B3 to B4, the “MC4R cAMP EC50” value rises from 0.02 nM to 0.1 nM (5-fold).

Going from B5 to B6, the “MC4R cAMP EC50” value rises from 0.2 nM to 3.53 nM (18-fold).

Compared with B7, B8 is 1.5-fold higher in “MC4R cAMP EC50” value: 0.08 nM for the first, 0.12 nM for the second.

With B9 the “MC4R cAMP EC50” value was 0.04 nM.

Biological target: human melanocortin 1 receptor (human, UniProt Q01726 1-317)
Sequence (Q01726 whole entry): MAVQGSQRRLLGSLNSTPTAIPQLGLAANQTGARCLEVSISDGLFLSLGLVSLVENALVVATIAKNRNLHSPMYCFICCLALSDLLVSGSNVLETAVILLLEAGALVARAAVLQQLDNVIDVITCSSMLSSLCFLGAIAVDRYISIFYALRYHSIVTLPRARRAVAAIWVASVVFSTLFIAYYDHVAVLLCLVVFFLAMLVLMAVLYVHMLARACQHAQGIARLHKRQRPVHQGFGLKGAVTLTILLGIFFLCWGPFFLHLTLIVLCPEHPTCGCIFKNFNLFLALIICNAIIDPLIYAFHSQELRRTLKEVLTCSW
Assay: cell-based or functional assay

B10 and B11 cannot be ordered by “MC1R cAMP EC50” value: 46.9 nM for the first, over 3.7 nM for the second.

B1 and B12 cannot be ordered by “MC1R cAMP EC50” value: 189 nM for the first, over 5.5 nM for the second.

B13 and B2 cannot be ordered by “MC1R cAMP EC50” value: over 4 nM for the first, 99.6 nM for the second.

First: B3
Second: B4
The “MC1R cAMP EC50” value of the first is 3.2-fold lower: 42.2 nM for the first, 134 nM for the second.

First: B5
Second: B14
The “MC1R cAMP EC50” value of the first is 65-fold higher: 168 nM for the first, 2.6 nM for the second.

B15 and B16 cannot be ordered by “MC1R cAMP EC50” value: over 1 nM for the first, 147 nM for the second.

Going from B6 to B17, the “MC1R cAMP EC50” value falls from 4380 nM to 137 nM (32-fold).

First: B18
Second: B7
The “MC1R cAMP EC50” value of the first is 130-fold lower: 2.35 nM for the first, 294 nM for the second.

First: B8
Second: B9
The “MC1R cAMP EC50” value of the first is 2-fold higher: 231 nM for the first, 114 nM for the second.
